{
  "source": "patent US20110152358A1",
  "about": "“Compositions and Methods for Diagnosis and Treatment of Pancreatic Ductal Cancer” (priority 2008, published 2011)",
  "molecules": {"B1": {"name": "sh2: lentiviral shRNA targeting 14-3-3σ, SEQ ID NO: 26 (sense) and 27 (antisense) (nucleic acid)", "sense": "TGGAGAGAGCCAGTCTGATCTTCAAGAGAGATCAGACTGGCTCTCTCCTTTTTTC", "antisense": "TCGAGAAAAAAGGAGAGAGCCAGTCTGATCTCTCTTGAAGATCAGACTGGCTCTCTCCA"}, "B2": {"name": "sh1: lentiviral shRNA targeting 14-3-3σ, SEQ ID NO: 24 (sense) and 25 (antisense) (nucleic acid)", "sense": "TCGAGACAACCTGACACTGTTTCAAGAGAACAGTGTCAGGTTGTCTCGTTTTTTC", "antisense": "TCGAGAAAAAACGAGACAACCTGACACTGTTCTCTTGAAACAGTGTCAGGTTGTCTCGA"}, "B3": {"name": "shCtrl: scrambled control shRNA not targeting any known mammalian gene, SEQ ID NO: 28 and 29 (nucleic acid)", "chain 1": "TACGAGCGAGGTGCCGATATTTCAAGAGAATATCGGCACCTCGCTCGTTTTTTTC", "chain 2": "TCGAGAAAAAAACGAGCGAGGTGCCGATATTCTCTTGAAATATCGGCACCTCGCTCGTA"}},
  "type_in_all_cases": "cell-based, human",
  "key": {"T3M4 cells [1]": {"system": "T3M4 cells", "assay": "cisplatinum induced apoptosis, immunoblot of cleaved PARP and cleaved caspase-3, shRNA infected T3M4 cells", "settings": "cisplatinum 10 νg/mL for 2, 6, or 24 hours", "method": "Sham or 14-3-3σ transfected PANC-1 cells were incubated for 24 hours in complete medium in the absence or presence of 10 μg/mL of cisplatinum. Scrambled or 14-3-3σ specific shRNA infected T3M4 cells were incubated in complete medium for 24 hours that was supplemented with 10 μg/mL cisplatinum for the initial 2 or 6 hours, or the entire 24 hours. Both floating and adherent cells were then collected and lysed in the buffer containing protease inhibitors, subjected to 10% SDS-PAGE, and immunoblotted with specific antibodies against cleaved Poly (ADP-ribose) Polymerase (PARP) and cleaved caspase-3 (Cell Signaling Technology, Danvers, Mass.)."}, "14-3-3σ": {"system": "14-3-3σ", "assay": "downregulation of 14-3-3σ by lentiviral shRNA in T3M4 cells (western blotting, Q-PCR)", "settings": "for 14-3-3σ levels: MOI of 40"}, "T3M4 cells [2]": {"system": "T3M4 cells", "assay": "in vitro wound-healing (migration) assay, shRNA infected T3M4 cells", "settings": "serum free; 24 hours; percentage change in wound area", "method": "To assess the motility properties, in vitro wound-healing assays or migration assays were performed. Cells were grown to confluence in 6-well tissue culture plates, serum starved overnight, and the monolayer was scratched with a 200 μL pipette tip generating two parallel wounds. The scratched wells were washed to remove cell debris and incubated for the next 24 hours in serum free media in the absence or presence 1 nmol/L EGF with or without the Src family kinase inhibitor PP2 (4-amino-5-(4-chlorophenyl)-7-(t-butyl)pyrazolo[3,4-d]pyrimidine) (Alexis, La Jolla, Calif.). To monitor cell migration, photographs were taken of each well at five marked locations under 40× magnification immediately after wounding (t0) and again 24 hours after wounding (t24), using an inverted microscope fitted with a digital camera (Nikon Diaphot 300, Nikon, Japan). The wound area of five matched pictures at t0 and t24 from each well were then measured using the ImageJ software (NIH, Bethedsa, Md.), and the percentage change in the wound area was calculated."}},
  "data": [
    {"molecule": "B1", "values": [
      {"measurement": "sensitivity of sh2 infected cells to cisplatinum compared to sh1", "setting": "T3M4 cells [1]", "result": "relatively more sensitive"},
      {"measurement": "sensitivity of shRNA infected cells to cisplatinum versus control cells", "setting": "T3M4 cells [1]", "result": "significantly more sensitive than control cells"},
      {"measurement": "knockdown of 14-3-3σ, sh2 relative to sh1", "setting": "14-3-3σ", "result": "more effective than sh1"},
      {"measurement": "14-3-3σ levels", "setting": "14-3-3σ", "result": "reduce"},
      {"measurement": "basal motility of shRNA infected cells", "setting": "T3M4 cells [2]", "result": 20, "unit": "%"}
    ]},
    {"molecule": "B2", "values": [
      {"measurement": "sensitivity of shRNA infected cells to cisplatinum versus control cells", "setting": "T3M4 cells [1]", "result": "significantly more sensitive than control cells"},
      {"measurement": "14-3-3σ levels", "setting": "14-3-3σ", "result": "reduce"},
      {"measurement": "basal motility of shRNA infected cells", "setting": "T3M4 cells [2]", "result": 20, "unit": "%"}
    ]},
    {"molecule": "B3", "values": [
      {"measurement": "14-3-3σ levels", "setting": "14-3-3σ", "result": "did not alter"},
      {"measurement": "basal motility of shRNA infected cells", "setting": "T3M4 cells [2]", "result": 20, "unit": "%"}
    ]}
  ]
}
